One assay has as its target HLA-A*32:07. Description: IEDB peptide-MHC binding, purified MHC/competitive/fluorescence; filed as Kd, often an IC50 or EC50 that approximates it; ≥ and ≤ were set here for values at or beyond the usual limits of such assays.
The next assay deals with HLA-B*27:20. The description is as above.
The next assay deals with HLA-B*45:06. The description is as above.
Another assay has as its target HLA-B*15:42. Described as above.
The target in another assay is HLA-B*83:01. Described as above.
The next assay concerns the target HLA-C*07:02. In words: IEDB peptide-MHC binding, purified MHC/direct/fluorescence; filed as Kd, often an IC50 or EC50 that approximates it; ≥ and ≤ were set here for values at or beyond the usual limits of such assays.
Assay [1] concerns the target HLA-A*02:01. In words: IEDB peptide-MHC binding, purified MHC/competitive/fluorescence; filed as Kd, often an IC50 or EC50 that approximates it; ≥ and ≤ were set here for values at or beyond the usual limits of such assays.
The next assay addresses HLA-A*11:01. The assay is described as above. Particulars: source organism: Bacillus anthracis str. A0488.
The target in assay [2] is HLA-A*68:02. Described as above. The note with it: source organism: Bacillus anthracis str. A0488.
The target of a further assay is HLA-A*31:01. The description is as above. The note with it: source organism: Bacillus anthracis str. A0488.
The target of another assay is HLA-A*30:01. Described as above.
A further assay deals with HLA-B*58:01. Description: IEDB peptide-MHC binding, purified MHC/direct/fluorescence; filed as Kd, often an IC50 or EC50 that approximates it; ≥ and ≤ were set here for values at or beyond the usual limits of such assays.
In assay [3] the target is HLA-B*48:01. Described as above. Particulars: source organism: Bacillus anthracis.
Assay [4] addresses HLA-A*01:01. The assay is described as above. Particulars: source organism: Bacillus anthracis.
Another assay has as its target HLA-B*40:01. The assay is described as above.
Assay [5] has as its target HLA-B*27:05. The assay is described as above. The note with it: source organism: Bacillus anthracis.
A further assay concerns the target HLA-B*08:03. The description is as above.
In the next assay the target is HLA-B*57:01. Described as above.
Another assay deals with HLA-B*08:02. The description is as above. Particulars: source organism: Bacillus cereus NVH0597-99.
Another assay has as its target HLA-A*26:02. Described as above. The note with it: source organism: Bacillus cereus NVH0597-99.
A further assay deals with HLA-B*15:17. Described as above.
The next assay addresses HLA-A*26:03. Described as above.
A further assay addresses HLA-B*07:02. Described as above.
The next assay addresses HLA-A*69:01. The description is as above.
In assay [6] the target is HLA-B*48:01. In words: IEDB peptide-MHC binding, purified MHC/competitive/fluorescence; filed as Kd, often an IC50 or EC50 that approximates it; ≥ and ≤ were set here for values at or beyond the usual limits of such assays. The note with it: source organism: Vaccinia virus Copenhagen.
Assay [7] concerns the target HLA-A*01:01. The assay is described as above. The note with it: source organism: Vaccinia virus Copenhagen.
Assay [8] concerns the target HLA-B*27:05. Described as above. The note with it: source organism: Vaccinia virus Copenhagen.
Another assay addresses HLA-B*18:01. Described as above. The note with it: source organism: Vaccinia virus Copenhagen.
The next assay has as its target HLA-B*15:09. In words: IEDB peptide-MHC binding, purified MHC/direct/fluorescence; filed as Kd, often an IC50 or EC50 that approximates it; ≥ and ≤ were set here for values at or beyond the usual limits of such assays. Particulars: source organism: Variola virus.
The next assay has as its target HLA-B*46:01. The assay is described as above. Particulars: source organism: Cowpox virus.
The next assay deals with HLA-B*39:01. Described as above. The note with it: source organism: Cowpox virus.
The next assay concerns the target HLA-B*15:01. Described as above. The note with it: source organism: Cowpox virus.
Another assay has as its target HLA-B*38:01. The assay is described as above. The note with it: source organism: Variola virus.
Assay [9] concerns the target HLA-A*02:01. The assay is described as above. The note with it: source organism: Cowpox virus.
For assay [10], the target named is HLA-A*68:02. The description is as above. The note with it: source organism: Cowpox virus.
The next assay addresses HLA-C*14:02. In words: IEDB peptide-MHC binding, purified MHC/competitive/fluorescence; filed as Kd, often an IC50 or EC50 that approximates it; ≥ and ≤ were set here for values at or beyond the usual limits of such assays. The note with it: source organism: Yersinia pestis CO92.
The next assay addresses HLA-B*51:01. The description is as above. Particulars: source organism: Yersinia pestis CO92.
The target of another assay is HLA-C*15:02. In words: IEDB peptide-MHC binding, purified MHC/direct/fluorescence; filed as Kd, often an IC50 or EC50 that approximates it; ≥ and ≤ were set here for values at or beyond the usual limits of such assays. The note with it: source organism: Yersinia pestis CO92.
The target of another assay is HLA-C*06:02. The assay is described as above. The note with it: source organism: Yersinia pestis CO92.
The target of a further assay is HLA-C*05:01. The description is as above. The note with it: source organism: Yersinia pestis CO92.
Where [11] appears, read: source organism: Mycobacterium tuberculosis C.
Where [12] appears, read: source organism: Bacillus anthracis str. A0488.
Where [13] appears, read: source organism: Bacillus anthracis.
[14] abbreviates: source organism: Bacillus cereus NVH0597-99.
Setting [15] is: source organism: Yersinia pestis CO92.

A value given as a limit tells only on which side of the number the result lay.

One may read the Kd as a measure of binding affinity in units of concentration. As for RARRHLAAL, the Kd with HLA-A*32:07 (setting [11]) is 114 nM; in the assay with HLA-B*27:20 (setting [11]), 7.4 nM; in the assay with HLA-B*45:06 (setting [11]) it was ≥ 5 µM; with HLA-B*15:42 (setting [11]) it was ≥ 5 µM; with HLA-B*83:01 (setting [11]), 5 µM; with HLA-C*07:02 (setting [11]), 1340 nM.

For REFEAQNVP, the Kd with HLA-A*02:01 [1] (setting [12]) was 145 nM; in the assay with HLA-A*11:01, 497 nM; in the assay with HLA-A*68:02 [2], 2190 nM; with HLA-A*31:01, ≥ 20 µM; with HLA-A*30:01 (setting [12]) it was 521 nM; with HLA-B*58:01 (setting [13]), ≥ 20 µM. The equilibrium dissociation constant (Kd) in the assay with HLA-B*48:01 [3] was ≥ 20 µM; with HLA-A*01:01 [4], ≥ 20 µM; in the assay with HLA-B*40:01 (setting [13]), 294 nM; with HLA-B*27:05 [5] it was ≥ 20 µM; with HLA-B*08:03 (setting [14]), ≥ 20 µM; in the assay with HLA-B*57:01 (setting [13]) it was ≥ 20 µM. In addition, the equilibrium dissociation constant (Kd) with HLA-B*08:02, in the assay with HLA-A*26:02, with HLA-B*15:17 (setting [13]), with HLA-A*26:03 (setting [14]), in the assay with HLA-B*07:02 (setting [13]) and in the assay with HLA-A*69:01 (setting [13]) was ≥ 20 µM throughout.

Take RHDITGFIL: the dissociation constant (Kd) was 298 nM with HLA-B*48:01 [6]; ≥ 20 µM with HLA-A*01:01 [7]; ≥ 20 µM with HLA-B*27:05 [8]; ≥ 20 µM in the assay with HLA-B*18:01; ≥ 20000 nM in the assay with HLA-A*30:01 (source organism: Vaccinia virus Copenhagen); 2780 nM with HLA-B*15:09. The Kd with HLA-B*58:01 (source organism: Cowpox virus) is ≥ 20 µM; with HLA-B*46:01 it was ≥ 20 µM; in the assay with HLA-B*39:01 it was 23.5 nM; in the assay with HLA-B*15:01 it was ≥ 20 µM; with HLA-B*38:01, 33 nM; with HLA-B*40:01 (source organism: Cowpox virus) it was 513 nM. In addition, the dissociation constant (Kd) with HLA-A*02:01 [9], with HLA-B*08:03 (source organism: Variola virus), with HLA-B*57:01 (source organism: Cowpox virus), with HLA-A*68:02 [10], with HLA-B*15:17 (source organism: Cowpox virus) and with HLA-A*26:03 (source organism: Variola virus) was ≥ 20 µM each time. Further, the Kd with HLA-B*07:02 (source organism: Cowpox virus) and with HLA-A*69:01 (source organism: Cowpox virus) was ≥ 20 µM in each case.

Regarding YQLEMYHPI, the Kd is 70.9 nM in the assay with HLA-C*14:02; 1.3 nM with HLA-A*32:07 (setting [15]); 0.8 nM with HLA-B*27:20 (setting [15]); 0.2 nM with HLA-A*02:01 [1] (setting [15]); 3.21 µM with HLA-B*45:06 (setting [15]); ≥ 20 µM in the assay with HLA-B*51:01. Also, the dissociation constant Kd is 15.2 µM in the assay with HLA-B*15:42 (setting [15]); ≥ 5 µM with HLA-B*83:01 (setting [15]); 3750 nM with HLA-C*07:02 (setting [15]); ≥ 20 µM with HLA-C*15:02; ≥ 20 µM in the assay with HLA-C*06:02; ≥ 20 µM with HLA-C*05:01.

Values taken from the Immune Epitope Database (IEDB).
